What was measured:
α17 Q1720A = assay: FP
α17 L1709A = assay: FP
α17 D1722K = assay: FP
α17 Y1713A = assay: FP
α17 D1723K = assay: FP
α17 Q1717A = assay: FP
α17 F1716A = assay: FP
α17 F1718A = assay: FP
[1] = molecular target: PfEMP1 ATS-Core of variant PFF0845c (P. falciparum); assay: NMR; 50 mM NaCl, 25°C

B1: PfEMP1 ATS of variant PFF0845c, fluorescently labeled (H159C) (domain or fragment)
chain: KKKTKSTIDLLRVINIPKGDYGIPTMKSKNRYVPYKSGQYNGKKYIYMEGDESDDYTYIGDISSSDITSSESEYEDIDINNIYPYKSPKYKTLIDVVLEPSKRDTFNTQSDIPSDTSTNKFTDNEWNQLKQDFISNISQNSQMDLPKNNISGNIQMDTCPHVNILDDSMQEKPFITSIHDRDLHNGEEVTYNINLDDHKNMNFSTNHDNIPPKNDQNDLYTGIDLINDSISGNHNVNIYDELLKRKENELFGTNHTKHTTTNIVAKQTHNDPIVNQINLFHKWLDRHRNMCEQWDKNKKEELLDKLNEEWNKENKNNSNVTDTNGENNITRVLNSDVSIQIDMNSKPI
modifications: fluorescein (5-FAM; fluorescein-5-maleimide) on the introduced cysteine C159
Kd (α17 Q1720A): 41 µM
Kd (α17 L1709A): 140 µM
Kd (α17 D1722K): 60 µM
Kd (α17 Y1713A): 63 µM
Kd (α17 D1723K): 35 µM
Kd (α17 Q1717A): 28 µM
Kd (α17 F1716A): 300 µM
Kd (α17 F1718A): 63 µM

B2: spectrin α chain domain 17 (domain or fragment)
chain: AHHEKLKEAYALFQFFQDLDDEESWIEEKLIRVSSQDYGRDLQGVQNLLKKHKRLEGELVAHEPAIQNVLDMAEKLKDKAAVGQEEIQLRLAQFVEHWEKLKELAKARGLKLEESLEYLQFMQNA
Kd [1]: 350 µM
